Test [1] has as its target VP3, inner capsid protein of mud crab reovirus (MCRV) (mud crab reovirus (MCRV)). Briefly: cryo-EM structure; single-particle cryo-EM of purified MCRV virions, quiescent (qMCRV) and transcribing (tMCRV), in PBS; icosahedral, C1 and D5 reconstructions; atomic models built de novo.
Test [2] deals with VP12, major outer capsid protein of mud crab reovirus (MCRV) (mud crab reovirus (MCRV)). The test is described as above.

Substance “VP3, inner capsid protein of mud crab reovirus (MCRV) (natural protein)” gave a stoichiometry N in test [1] of 2.
Substance “VP12, major outer capsid protein of mud crab reovirus (MCRV) (natural protein)” showed a stoichiometry N in test [2] of 3.

The term stoichiometry N denotes the number of molecules, sites or subunits per partner or assembly.

These data come from paper PMC10155992.
